In patent US20170015742A1 (published 2017):
Changes are numbered by the printed parent chain. Names and notes keep the numbering of the source.

B1: chBEW-9D2 (antibody, human IgG1, kappa, L234A L235A, V domains shown)
VH: QIQLVQSGPELKKPGESVKISCKASGYTFTNYGMYWVKLAPGQGLQYLGWINTETGKPTYADDFKGRFVFFLETSASTAYLQINNLRNEDMATYFCARPSDYYDGFWFAYWGQGTLVTVSS
VL: DTVLTQSPALTVSPGERVSISCRASEWVNSYMHWYQQNPGQQPKLLIYKASNLASGVPARFSGSGSGTDFTLTLDPVEADDTATYFCQQSWNDPLTFGSGTKLEIKR
B2: 4G8.3-GS-9E8.4(g) (PR-1572102), anti-VEGF-A/anti-PDGF-BB DVD-Ig, hu IgG1/k L234A L235A H435A (bispecific antibody)
heavy: EVQLVQSGSELKKPGASVKVSCKASGYTFTNYGMYWVRQAPGQGLEWMGWINTETGKPTYADDFKGRFVFSLDTSVSTAYLQISSLKAEDTAVYYCARTNYYYRSYIFYFDYWGQGTMVTVSSGGGGSGGGGSEVTLRESGPALVKPTQTLTLTCTFSGFSLSTYGMGVGWIRQPPGKALEWLANIWWDDDKYYNPSLKNRLTISKDTSKNQVVLTMTNMDPVDTATYYCARIESIGTTYSFDYWGQGTMVTVSSASTKGPSVFPLAPSSKSTSGGTAALGCLVKDYFPEPVTVSWNSGALTSGVHTFPAVLQSSGLYSLSSVVTVPSSSLGTQTYICNVNHKPSNTKVDKKVEPKSCDKTHTCPPCPAPEAAGGPSVFLFPPKPKDTLMISRTPEVTCVVVDVSHEDPEVKFNWYVDGVEVHNAKTKPREEQYNSTYRVVSVLTVLHQDWLNGKEYKCKVSNKALPAPIEKTISKAKGQPREPQVYTLPPSREEMTKNQVSLTCLVKGFYPSDIAVEWESNGQPENNYKTTPPVLDSDGSFFLYSKLTVDKSRWQQGNVFSCSVMHEALHNAYTQKSLSLSPGK
light: DTVLTQSPATLSLSPGERATLSCRASESVSTHMHWYQQKPGQAPRLLIYGASNLESGVPARFSGSGSGTDFTLTISSLEPEDFAVYFCQQSWNDPFTFGQGTKLEIKRGGSGGGGSGEFVLTQSPGTLSLSPGERATLSCERSSGDIGDSYVSWYQQKPGQAPRLVIYADDQRPSGIPDRFSGSGSGTDFTLTISRLEPEDFAVYYCQSYDINIDIVFGGGTKVEIKRTVAAPSVFIFPPSDEQLKSGTASVVCLLNNFYPREAKVQWKVDNALQSGNSQESVTEQDSKDSTYSLSSTLTLSKADYEKHKVYACEVTHQGLSSPVTKSFNRGEC
notes: also called 4G8.3-GS(9)-9E8.4 (g); hu VEGF 4G8.3-GS-hu PDGF 9E8.4 (germline) [hu IgG1/k]; LALA H435A
B3: 4G8.3-GS-9E8.4 (PR-1569574), anti-VEGF-A/anti-PDGF-BB DVD-Ig, hu IgG1/k mut(234,235) H435A (bispecific antibody)
heavy: B2 heavy
light: B2 light with R228G
notes: also called hVEGF 4G8.3-GS-hPDGF 9E8.4 [hu IgG1/k] mut(234, 235) H435A
B4: 4G8.3-SL-9E8.4(g) (PR-1572105), anti-VEGF-A/anti-PDGF-BB DVD-Ig, hu IgG1/k L234A L235A H435A (bispecific antibody)
heavy: EVQLVQSGSELKKPGASVKVSCKASGYTFTNYGMYWVRQAPGQGLEWMGWINTETGKPTYADDFKGRFVFSLDTSVSTAYLQISSLKAEDTAVYYCARTNYYYRSYIFYFDYWGQGTMVTVSSASTKGPEVTLRESGPALVKPTQTLTLTCTFSGFSLSTYGMGVGWIRQPPGKALEWLANIWWDDDKYYNPSLKNRLTISKDTSKNQVVLTMTNMDPVDTATYYCARIESIGTTYSFDYWGQGTMVTVSSASTKGPSVFPLAPSSKSTSGGTAALGCLVKDYFPEPVTVSWNSGALTSGVHTFPAVLQSSGLYSLSSVVTVPSSSLGTQTYICNVNHKPSNTKVDKKVEPKSCDKTHTCPPCPAPEAAGGPSVFLFPPKPKDTLMISRTPEVTCVVVDVSHEDPEVKFNWYVDGVEVHNAKTKPREEQYNSTYRVVSVLTVLHQDWLNGKEYKCKVSNKALPAPIEKTISKAKGQPREPQVYTLPPSREEMTKNQVSLTCLVKGFYPSDIAVEWESNGQPENNYKTTPPVLDSDGSFFLYSKLTVDKSRWQQGNVFSCSVMHEALHNAYTQKSLSLSPGK
light: DTVLTQSPATLSLSPGERATLSCRASESVSTHMHWYQQKPGQAPRLLIYGASNLESGVPARFSGSGSGTDFTLTISSLEPEDFAVYFCQQSWNDPFTFGQGTKLEIKRTVAAPSVFIFPPEFVLTQSPGTLSLSPGERATLSCERSSGDIGDSYVSWYQQKPGQAPRLVIYADDQRPSGIPDRFSGSGSGTDFTLTISRLEPEDFAVYYCQSYDINIDIVFGGGTKVEIKRTVAAPSVFIFPPSDEQLKSGTASVVCLLNNFYPREAKVQWKVDNALQSGNSQESVTEQDSKDSTYSLSSTLTLSKADYEKHKVYACEVTHQGLSSPVTKSFNRGEC
notes: also called hu VEGF 4G8.3-SL-hu PDGF 9E8.4 (germline) [hu IgG1/k]; LALA H435A
B5: 4G8.3-SL-9E8.4 (PR-1569579), anti-VEGF-A/anti-PDGF-BB DVD-Ig, hu IgG1/k mut(234,235) H435A (bispecific antibody)
heavy: B4 heavy
light: B4 light with R231G
notes: also called hVEGF 4G8.3-SL-hPDGF 9E8.4 [hu IgG1/k] mut(234, 235) H435A

What follows are binders tested against Human VEGF-A 165 (human, UniProt P15692 207-395) (assay: cell-based or functional assay).
Human VEGF-A 165, sequence (P15692 other isoform, or with tags, fused parts or gaps): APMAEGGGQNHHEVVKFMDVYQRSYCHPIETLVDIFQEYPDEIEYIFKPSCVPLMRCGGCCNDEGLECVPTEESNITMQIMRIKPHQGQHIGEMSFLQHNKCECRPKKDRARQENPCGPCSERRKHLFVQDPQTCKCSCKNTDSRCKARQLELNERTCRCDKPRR
With B1 the “huVEGF-A165 Neutralization Potency in HMVEC-d cells” value was 0.00215 µM.

The binders below were run against T1, Recombinant human FcγRIIb, 6xHis-tagged (human, UniProt P31994 46-217, limits assumed) (assay: Biacore SPR; His-tagged human FcγR captured on anti-6xHis antibody, DVD-Ig injected).
T1 construct: Captured through its 6xHis tag; also called huFcRIIb
T1 sequence: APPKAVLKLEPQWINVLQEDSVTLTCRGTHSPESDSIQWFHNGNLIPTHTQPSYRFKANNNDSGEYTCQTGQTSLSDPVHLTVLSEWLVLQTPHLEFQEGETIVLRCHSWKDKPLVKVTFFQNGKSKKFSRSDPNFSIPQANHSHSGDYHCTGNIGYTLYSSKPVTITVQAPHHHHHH
Description: (§1) A CM5 chip (GE Healthcare, Pittsburgh, Pa.) with mouse anti-6×His antibodies (“6×His” disclosed as SEQ ID NO: 405) that were directly immobilized on the chip via amine coupling according to the GE Healthcare protocol to the density of 10000RU (all flow cells) was used for experiments. Human FcγRs were captured on flow cells 2, 3 and 4. Flow cell 1 was used as a reference surface. HBS-EP+ was used as the running buffer. […] The chip surfaces were regenerated with an injection of 10 mM glycine pH 1.5 at a flow rate of 100 μL/minute over all four flow cells after each cycle.
B2: no binding (tested: DVD-Ig 31.25 to 4000 nM).
B3: no binding (tested: DVD-Ig 31.25 to 4000 nM).
B4: no binding (tested: DVD-Ig 31.25 to 4000 nM).
B5: no binding (tested: DVD-Ig 31.25 to 4000 nM).

The binders below were run against T2, Recombinant human FcγRIIa H131, 6xHis-tagged (human, UniProt P12318 36-218, limits assumed) in the same assay as above.
T2 construct: Captured through its 6xHis tag
T2 sequence: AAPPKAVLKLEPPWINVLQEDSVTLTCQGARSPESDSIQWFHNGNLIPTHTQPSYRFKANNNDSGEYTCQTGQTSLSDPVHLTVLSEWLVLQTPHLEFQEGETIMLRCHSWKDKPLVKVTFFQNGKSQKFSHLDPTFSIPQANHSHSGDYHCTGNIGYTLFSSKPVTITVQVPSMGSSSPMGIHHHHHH
Description: as §1
B2: no binding (tested: DVD-Ig 31.25 to 4000 nM).
B3: no binding (tested: DVD-Ig 31.25 to 4000 nM).
B4: no binding (tested: DVD-Ig 31.25 to 4000 nM).
B5: no binding (tested: DVD-Ig 31.25 to 4000 nM).

Each binder was assayed against T3, Recombinant human FcγRIIa R131, 6xHis-tagged (human, UniProt P12318 36-218, limits assumed) in the same assay as above.
T3 construct: Captured through its 6xHis tag
T3 sequence: T2 sequence with H132R
Description: as §1
B2: no binding (tested: DVD-Ig 31.25 to 4000 nM).
B3: no binding (tested: DVD-Ig 31.25 to 4000 nM).
B4: no binding (tested: DVD-Ig 31.25 to 4000 nM).
B5: no binding (tested: DVD-Ig 31.25 to 4000 nM).

These binders were tested against T4, Recombinant human FcγRIIIa F158, 6xHis-tagged (human, UniProt P08637 17-208, limits assumed) in the same assay as above.
T4 construct: Captured through its 6xHis tag
T4 sequence (P08637 other isoform, or with tags, fused parts or gaps limits assumed): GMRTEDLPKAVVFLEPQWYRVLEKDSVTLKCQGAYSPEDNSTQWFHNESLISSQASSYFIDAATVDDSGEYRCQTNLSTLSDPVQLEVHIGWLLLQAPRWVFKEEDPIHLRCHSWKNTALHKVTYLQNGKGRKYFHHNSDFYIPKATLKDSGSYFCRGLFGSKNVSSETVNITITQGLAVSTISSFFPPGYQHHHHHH
Description: as §1
B2: no binding (tested: DVD-Ig 31.25 to 4000 nM).
B3: no binding (tested: DVD-Ig 31.25 to 4000 nM).
B4: no binding (tested: DVD-Ig 31.25 to 4000 nM).
B5: no binding (tested: DVD-Ig 31.25 to 4000 nM).

The binders below were run against T5, Recombinant rat FcRn (rat, UniProt P13599 23-298, limits assumed) (assay: Biacore SPR; DVD-Ig immobilised by amine coupling, recombinant FcRn injected; 1:1 binding fit).
T5 construct: FcRn is normally a heterodimer with beta-2-microglobulin
T5 sequence (looked up) 1: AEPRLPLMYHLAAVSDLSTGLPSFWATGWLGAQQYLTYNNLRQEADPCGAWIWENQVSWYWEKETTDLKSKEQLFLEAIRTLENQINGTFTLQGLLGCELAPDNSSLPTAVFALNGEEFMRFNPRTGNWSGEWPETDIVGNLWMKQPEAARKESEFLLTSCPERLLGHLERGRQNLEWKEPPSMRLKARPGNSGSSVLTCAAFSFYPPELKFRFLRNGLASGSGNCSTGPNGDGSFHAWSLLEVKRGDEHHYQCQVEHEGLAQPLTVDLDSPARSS
T5 sequence (looked up) 2: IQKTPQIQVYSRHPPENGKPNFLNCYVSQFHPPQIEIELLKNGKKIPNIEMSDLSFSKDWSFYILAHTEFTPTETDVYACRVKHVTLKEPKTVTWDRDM
Description: Human, cynomolgus, mouse, rat and rabbit recombinant FcRns were injected over all the flow cells at a flow rate of 50 μL/minute for 1 minute at a concentrations range of from 2.7 to 6000 nM (three fold serial dilution), followed by a 2 minute dissociation time. The surfaces were regenerated with an injection of 10 mM HCl at 100 μL/minute for 2 seconds followed by an injection of HBS-EP+, pH 7.4, at a flow rate of 50 μL/minute for 30 seconds over all four flow cells. Samples were prepared and run in two running buffer systems, pH 6.0 MES-EP+, and pH […]. Recombinant human FcγRIIIa V158 and rat and mouse FcRn data were fitted to 1:1 kinetic model. Recombinant human FcγRIIa R131 and FcγRIIa H131, FcγRIIIa F158, and recombinant human, cynomolgus and rabbit FcRn binding data were fitted to a steady state affinity model. Biacore T200 Evaluation Software version 2.0 was used to fit all the data.
B2: no binding (tested: FcRn 2.7 to 6000 nM).
B3: no binding (tested: FcRn 2.7 to 6000 nM).
B4: no binding (tested: FcRn 2.7 to 6000 nM).
B5: no binding (tested: FcRn 2.7 to 6000 nM).

Each binder was assayed against T6, Recombinant human FcγRIIIa V158, 6xHis-tagged (human, UniProt P08637 17-208, limits assumed) (assay: Biacore SPR; His-tagged huFcγRIIIa 158V captured on anti-6xHis antibody, DVD-Ig injected; steady state fit).
T6 construct: Captured through its 6xHis tag; also called huFcRIIIa 158V
T6 sequence (P08637 other isoform, or with tags, fused parts or gaps limits assumed): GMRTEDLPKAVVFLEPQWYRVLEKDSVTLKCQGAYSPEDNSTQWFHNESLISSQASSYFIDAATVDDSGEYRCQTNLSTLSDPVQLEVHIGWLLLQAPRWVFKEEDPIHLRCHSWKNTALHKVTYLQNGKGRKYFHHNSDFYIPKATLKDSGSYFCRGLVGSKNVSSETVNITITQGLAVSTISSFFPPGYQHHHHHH
Description: as §1
The binding of DVD-Ig molecules to FcRn from various species and the binding of DVD-Ig molecules to various FcγRs were characterized by Biacore using the method described in Example 1.2.
B2 was tested, and the Kd was 7.4 µM.
For B3, the Kd was 16 µM.
For B4, the Kd was 6.2 µM.
B5 gave a Kd of 12 µM.
